# Test results reported in the supplement of paper PMC12764529.
# ± gives the half width of the 95% confidence interval.
# Columns and labels:
# [1] = folding stability dG unfold from trypsin proteolysis; higher = more stable
# Method in brief: (§1)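 Unfolding free energy was derived, per protease or combined, against a sequence-predicted unfolded-state K50 and a shared folded-state K50, starting from K50 inferred by Bayesian fitting of sequencing counts. Digestion with trypsin and chymotrypsin was carried out on designed mini-proteins under 80 residues without cysteine in a PA-tagged cDNA display construct. Only designs with AlphaFold2 dimer inter-PAE above 15 were kept.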
# [2] = folding stability dG unfold from chymotrypsin proteolysis; higher = more stable
# Method in brief: as §1
# [3] = folding stability dG unfold (combined trypsin and chymotrypsin); higher = more stable
# Method in brief: as §1
Sequence,folding stability dG unfold [1] [kcal/mol],folding stability dG unfold [2] [kcal/mol],folding stability dG unfold [3] [kcal/mol]
SAGGSAGGGSLKYTPGVHRLTYYDPATGTTTTLTFTSEEEALEYLKKKYPDVPWKRNPDGTWVLSAGGSAGG [r6_288_JUSTAS],1.62 ± 0.059,2.15 ± 0.12,2.08 ± 0.25
SAGGSAGGSIRRDENGNFRVRIKVRFPGNGRKRTIEIPFDNATLEEIRKQAIDHGIRPIEIIPSAGGSAGGS [r12_792_TrROS],0.993 ± 0.052,1.35 ± 0.053,1.24 ± 0.047
SAGGSAGGRLEPITEEEALELARLLAEYIRRLFPGDPRPHLVVVPILVPTPEDGYRLFLAVIAESAGGSAGG [r6_844_TrMRF],2.74 ± 0.079,4.1 ± 0.039,3.73 ± 0.067
SAGDNMYKYDYENPWYGIKIEVWVSPNGQIVSIKVKIEKVPPVPPKPPIDPEDMVPDPDGKYRSPNDLDSAG [r5_685_TrROS],1.4 ± 0.098,2.26 ± 0.026,1.95 ± 0.099
SAGGSAGGSAMPTYDNPDSLSIEEVKEKVAKEAKEKYPGKSNITVPVKFSDGTEYTVTIKIESAGGSAGGSA [r18_449_JUSTAS],-0.288 ± 0.05,-0.771 ± 0.21,-0.405 ± 0.21
SAGKPGKTIKVTVPIPDSVKNAKIIVEYPNGKSKTITVPAGKNVTITFKVPGSSSVKVRVVLDDGSVIGSAG [r5_664_TrMRF],2.9 ± 0.075,2.45 ± 0.046,2.69 ± 0.054
SAGWYYIIIIKHDNKPIVFVIPPEGMPPEGIRDQISEMLGMPPDNVEIDDIVPFDDNQDAEEAVKEALDSAG [r5_900_TrROS],1.53 ± 0.067,2.33 ± 0.14,2.09 ± 0.22
SAGGSLRQLIRALFKKKGIPIEPEKVDPNWVTFKVPNKDVKIDLPDGNKIEIKPNGYVRIRIPPDDLSAGGS [r8_297_TrROS],-0.172 ± 0.68,-0.354 ± 0.89,-0.1 ± 0.4
SAGGSAGGSAGMTKTITVGDKKVNVTITPLPTPTTKVTITFPDGSTKTVTLPAGTPITLGSAGGSAGGSAGG [r11_525_JUSTAS],0.566 ± 0.045,0.176 ± 0.064,0.326 ± 0.054
SAGITILFNSAEDAENFAEELAEDYPNMNVTIKIHDPEHGEPVEIPVKIPPPPPKPKRDPDNGNKKYEGSAG [r5_870_TrROS],-0.132 ± 0.043,0.506 ± 0.053,0.286 ± 0.13
SAGGSAGGSAGTAEEIAKALEEAGFKVEKLPDGTLKVTVRNPETEETVEITLTLEEIEKLSAGGSAGGSAGG [r11_994_TrROS_Hall],2.38 ± 0.084,2.22 ± 0.051,2.33 ± 0.1
SAGMIKVEVVEKDEKTKEWKVVETKTIPVKPGEKPTVEELAKKLKEKGYEVRIEKTKDGTLKIYVIKKKSAG [r5_269_TrROS_Hall],3.33 ± 0.2,4.08 ± 0.061,3.78 ± 0.16
SAGGSAGGSAGLELTVGDVPVDVYVDPDTERALAYFPLFNRVAIVDLPTGKVYVVPLDDILSAGGSAGGSAG [r3_137_TrMRF],1.25 ± 0.04,1.11 ± 0.14,1.15 ± 0.076
SANGKEYTFTIEIRVRDPENGQPWTIRITVPIWYDPDDGKLDIDIDVTPTPGMPKEWAERIAKEIIEAISAG [r14_152_TrROS],3.04 ± 0.11,3.95 ± 0.048,3.6 ± 0.076
SAGGSAGGSAGGMEIEKNENGELIIKFKSKEEAEKAIEELKKKGYKVELNEDGYLIIKPSAGGSAGGSAGGS [r10_1027_TrROS_Hall],3.34 ± 0.16,4.07 ± 0.14,3.96 ± 0.13
SAGGSAGGSAMSPTEAERARPVPVVKTETTVTLDPSGYRVETVTYDGGVTETVVTPLPPELASAGGSAGGSA [r18_192_JUSTAS],0.0994 ± 0.04,-0.143 ± 0.11,0.0301 ± 0.085
SAGGATFAPGQTITVTVTVTLADGSTVTVTATVRIEVRAAPAPPVTVTNADGSTRTFTSAEEARAAASAGGS [r16_580_TrROS_Hall],1.46 ± 0.033,0.211 ± 0.25,1.01 ± 0.098
SAMTIVLTLDEIAELLGLEKGESVEELRERIRELIRRLEEEGYRVTSITIEEVDGELVITVEIEPPPPESAG [r14_158_TrROS_Hall],3.38 ± 0.2,5.23 ± 0.21,4.89 ± 0.21
SAGGSAIIIPIKSAEEILDQLENNPPGRPIHVWAPDGYWIKIEIDPGKGPKIKITEIYPMPPEEAKSAGGSA [r15_577_TrROS],0.741 ± 0.026,0.984 ± 0.062,0.896 ± 0.09
SAGGSAGGGSISIPGPGPVSATTDPVTKTLVTVTYPTSEVRIPIEGDKFTEAETTPLPPPPALTSAGGSAGG [r6_847_JUSTAS],-0.16 ± 0.1,1.08 ± 0.036,0.708 ± 0.072
SAGKINIPPDTDITVKISTEKKPNPPSPEEEEYVGVSYIKVKKNPDGSIEVEEEKFEIISKEEAEKMGLSAG [r5_340_JUSTAS],0.16 ± 0.13,0.177 ± 0.31,0.23 ± 0.28
